From patent publication US20260242495A1 (PROMETHEUS BIOSCIENCES, published 2026)
Several values for one entry are separate records, joined by “and”; a condition that tells them apart may be missing. Equal values may be shown once.

Target: T1, cynomolgus monkey TL1A (cynomolgus monkey, UniProt G7PRK8 72-251)
T1 sequence: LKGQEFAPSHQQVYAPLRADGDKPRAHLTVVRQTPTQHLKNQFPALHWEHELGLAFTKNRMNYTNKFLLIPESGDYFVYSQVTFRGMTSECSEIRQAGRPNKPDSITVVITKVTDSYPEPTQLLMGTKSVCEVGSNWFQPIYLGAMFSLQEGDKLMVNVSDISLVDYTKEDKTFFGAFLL
Assay: cell-based or functional assay

B1: anti-TL1A antibody A219 (antibody, V domains shown)
VH: QVQLVQSGAEVKKPGASVKVSCKASGFDIQDTYMHWVKQRPGQGLEWMGRIDPASGHTKYDPKFQVRVTITRDTSTSTVYLELSSLRSEDTAVYYCARSGGLPDVWGQGTTVTVSS
VL: EIVLTQSPGTLSLSPGERATLSCRASSSVSYMYWYQQKPGQAPRPLIYATSNLASGIPDRFSGSGSGTDFTLTISRLEPEDFAVYYCQQWEGNPRTFGGGTKLEIK
- IC50 of inhibition of IFN-γ release in monkey whole blood stimulated with immune complex, IL-12 and IL-18: 1.54 nM and 289 ng/mL
